Assay results published in the supplement of paper PMC5998384.

Tests used:
HeLa Kyoto [1] = assay: solubility in G1/S (NP-40 vs SDS abundance) (log2 ratio); higher = more soluble; conditions: cell cycle stage: G1/S
HeLa Kyoto [2] = assay: melting temperature (median over replicates), in situ; higher = more thermally stable
HeLa Kyoto [3] = assay: solubility change mitosis vs G1/S (difference of NP-40 vs SDS log2 ratios) (log2 ratio difference); higher = more soluble in mitosis
HeLa Kyoto [4] = assay: thermal stability score vs G1/S (z-score of summed log2 fold changes over temperatures); higher = more thermally stable than in G1/S
[5] = cell cycle stage: early G1 (4.5 h after nocodazole release)
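Wherever melting temperature (median over replicates), in situ is given: HeLa Kyoto cells synchronized by double thymidine or nocodazole block, proteins quantified by TMT10plex mass spectrometry, three independent biological replicates.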
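Wherever solubility change mitosis vs G1/S (difference of NP-40 vs SDS log2 ratios) is given: synchronized HeLa Kyoto cells (double thymidine block for G1/S, nocodazole release for mitosis), protein amounts in NP-40 versus SDS lysates quantified by mass spectrometry, three biological replicates.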
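Wherever solubility in G1/S (NP-40 vs SDS abundance) is given: HeLa Kyoto cells arrested at G1/S by double thymidine block, proteins quantified by TMT10plex mass spectrometry in mild NP-40 versus SDS extracts, three biological replicates.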
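Wherever thermal stability score vs G1/S (z-score of summed log2 fold changes over temperatures) is given: synchronized HeLa Kyoto cells, proteins quantified by TMT10plex mass spectrometry, three biological replicates, mitosis taken 0.5 h after nocodazole release, G1/S directly after double thymidine block.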

Row | Sequence | solubility in G1/S (log2) (HeLa Kyoto [1]) | melting temperature (HeLa Kyoto [2]; cell cycle stage: G1/S) | melting temperature (HeLa Kyoto [2]; cell cycle stage: mitosis) | solubility change mitosis (log2) (HeLa Kyoto [3]) | thermal stability score (HeLa Kyoto [4]; [5]) | thermal stability score (HeLa Kyoto [4]; cell cycle stage: mitosis)
1 | MAPPSTREPRVLSATSATKSDGEMVLPGFPDADSFVKFALGSVVAVTKASGGLPQFGDEYDFYRSFPGFQAFCETQGDRLLQCMSRVMQYHGCRSNIKDRSKVTELEDKFDLLVDANDVILERVGILLDEASGVNKNQQPVLPAGLQVPKTVVSSWNRKAAEYGKKAKSETFRLLHAKNIIRPQLKFREKIDNSNTPFLPKIFIKPNAQKPLPQALSKERRERPQDRPEDLDVPPALADFIHQQRTQQVEQDMFAHPYQYELNHFTPADAVLQKPQPQLYRPIEETPCHFISSLDELVELNEKLLNCQEFAVDLEHHSYRSFLGLTCLMQISTRTEDFIIDTLELRSDMYILNESLTDPAIVKVFHGADSDIEWLQKDFGLYVVNMFDTHQAARLLNLGRHSLDHLLKLYCNVDSNKQYQLADWRIRPLPEEMLSYARDDTHYLLYIYDKMRLEMWERGNGQPVQLQVVWQRSRDICLKKFIKPIFTDESYLELYRKQKKHLNTQQLTAFQLLFAWRDKTARREDESYGYVLPNHMMLKIAEELPKEPQGIIACCNPVPPLVRQQINEMHLLIQQAREMPLLKSEVAAGVKKSGPLPSAERLENVLFGPHDCSHAPPDGYPIIPTSGSVPVQKQASLFPDEKEDNLLGTTCLIATAVITLFNEPSAEDSKKGPLTVAQKKAQNIMESFENPFRMFLPSLGHRAPVSQAAKFDPSTKIYEISNRWKLAQVQVQKDSKEAVKKKAAEQTAAREQAKEACKAAAEQAISVRQQVVLENAAKKRERATSDPRTTEQKQEKKRLKISKKPKDPEPPEKEFTPYDYSQSDFKAFAGNSKSKVSSQFDPNKQTPSGKKCIAAKKIKQSVGNKSMSFPTGKSDRGFRYNWPQR [EXOSC10] | -0.517 | 46.6 °C | 48.7 °C | 0.289 | 4.13 | 7.46
2 | MAPPVAERGLKSVVWQKIKATVFDDCKKEGEWKIMLLDEFTTKLLASCCKMTDLLEEGITVVENIYKNREPVRQMKALYFITPTSKSVDCFLHDFASKSENKYKAAYIYFTDFCPDNLFNKIKASCSKSIRRCKEINISFIPHESQVYTLDVPDAFYYCYSPDPGNAKGKDAIMETMADQIVTVCATLDENPGVRYKSKPLDNASKLAQLVEKKLEDYYKIDEKSLIKGKTHSQLLIIDRGFDPVSTVLHELTFQAMAYDLLPIENDTYKYKTDGKEKEAILEEEDDLWVRIRHRHIAVVLEEIPKLMKEISSTKKATEGKTSLSALTQLMKKMPHFRKQITKQVVHLNLAEDCMNKFKLNIEKLCKTEQDLALGTDAEGQKVKDSMRVLLPVLLNKNHDNCDKIRAILLYIFSINGTTEENLDRLIQNVKIENESDMIRNWSYLGVPIVPQSQQGKPLRKDRSAEETFQLSRWTPFIKDIMEDAIDNRLDSKEWPYCSQCPAVWNGSGAVSARQKPRANYLEDRKNGSKLIVFVIGGITYSEVRCAYEVSQAHKSCEVIIGSTHVLTPKKLLDDIKMLNKPKDKVSLIKDE [STXBP3] | -0.0906 | 49 °C | 49 °C | -0.0474 | -0.14 | 0.708
3 | MAPVGVEKKLLLGPNGPAVAAAGDLTSEEEEGQSLWSSILSEVSTRARSKLPSGKNILVFGEDGSGKTTLMTKLQGAEHGKKGRGLEYLYLSVHDEDRDDHTRCNVWILDGDLYHKGLLKFAVSAESLPETLVIFVADMSRPWTVMESLQKWASVLREHIDKMKIPPEKMRELERKFVKDFQDYMEPEEGCQGSPQRRGPLTSGSDEENVALPLGDNVLTHNLGIPVLVVCTKCDAVSVLEKEHDYRDEHLDFIQSHLRRFCLQYGAALIYTSVKEEKNLDLLYKYIVHKTYGFHFTTPALVVEKDAVFIPAGWDNEKKIAILHENFTTVKPEDAYEDFIVKPPVRKLVHDKELAAEDEQVFLMKQQSLLAKQPATPTRASESPARGPSGSPRTQGRGGPASVPSSSPGTSVKKPDPNIKNNAASEGVLASFFNSLLSKKTGSPGSPGAGGVQSTAKKSGQKTVLSNVQEELDRMTRKPDSMVTNSSTENEA [DYNC1LI2] | 0.247 | 50.6 °C | 51.5 °C | 0.046 | -0.131 | 0.16
4 | MAPVLSKDSADIESILALNPRTQTHATLCSTSAKKLDKKHWKRNPDKNCFNCEKLENNFDDIKHTTLGERGALREAMRCLKCADAPCQKSCPTNLDIKSFITSIANKNYYGAAKMIFSDNPLGLTCGMVCPTSDLCVGGCNLYATEEGPINIGGLQQFATEVFKAMSIPQIRNPSLPPPEKMSEAYSAKIALFGAGPASISCASFLARLGYSDITIFEKQEYVGGLSTSEIPQFRLPYDVVNFEIELMKDLGVKIICGKSLSVNEMTLSTLKEKGYKAAFIGIGLPEPNKDAIFQGLTQDQGFYTSKDFLPLVAKGSKAGMCACHSPLPSIRGVVIVLGAGDTAFDCATSALRCGARRVFIVFRKGFVNIRAVPEEMELAKEEKCEFLPFLSPRKVIVKGGRIVAMQFVRTEQDETGKWNEDEDQMVHLKADVVISAFGSVLSDPKVKEALSPIKFNRWGLPEVDPETMQTSEAWVFAGGDVVGLANTTVESVNDGKQASWYIHKYVQSQYGASVSAKPELPLFYTPIDLVDISVEMAGLKFINPFGLASATPATSTSMIRRAFEAGWGFALTKTFSLDKDIVTNVSPRIIRGTTSGPMYGPGQSSFLNIELISEKTAAYWCQSVTELKADFPDNIVIASIMCSYNKNDWTELAKKSEDSGADALELNLSCPHGMGERGMGLACGQDPELVRNICRWVRQAVQIPFFAKLTPNVTDIVSIARAAKEGGANGVTATNTVSGLMGLKSDGTPWPAVGIAKRTTYGGVSGTAIRPIALRAVTSIARALPGFPILATGGIDSAESGLQFLHSGASVLQVCSAIQNQDFTVIEDYCTGLKALLYLKSIEELQDWDGQSPATVSHQKGKPVPRIAELMDKKLPSFGPYLEQRKKIIAENKIRLKEQNVAFSPLKRNCFIPKRPIPTIKDVIGKALQYLGTFGELSNVEQVVAMIDEEMCINCGKCYMTCNDSGYQAIQFDPETHLPTITDTCTGCTLCLSVCPIVDCIKMVSRTTPYEPKRGVPLSVNPVC [DPYD] | -0.116 | 54 °C | 53.5 °C | 0.02 | -1.59 | -1.63
5 | MAPWTLWRCCQRVVGWVPVLFITFVVVWSYYAYVVELCVFTIFGNEENGKTVVYLVAFHLFFVMFVWSYWMTIFTSPASPSKEFYLSNSEKERYEKEFSQERQQEILRRAARALPIYTTSASKTIRYCEKCQLIKPDRAHHCSACDSCILKMDHHCPWVNNCVGFSNYKFFLLFLLYSLLYCLFVAATVLEYFIKFWTNELTDTRAKFHVLFLFFVSAMFFISVLSLFSYHCWLVGKNRTTIESFRAPTFSYGPDGNGFSLGCSKNWRQVFGDEKKYWLLPIFSSLGDGCSFPTRLVGMDPEQASVTNQNEYARSSGSNQPFPIKPLSESKNRLLDSESQWLENGAEEGIVKSGTNNHVTVAIEN [ZDHHC20] | -0.00639 | 55.1 °C | 58.2 °C | -0.0867 | -0.885 | -1.86
6 | MAQADIALIGLAVMGQNLILNMNDHGFVVCAFNRTVSKVDDFLANEAKGTKVVGAQSLKEMVSKLKKPRRIILLVKAGQAVDDFIEKLVPLLDTGDIIIDGGNSEYRDTTRRCRDLKAKGILFVGSGVSGGEEGARYGPSLMPGGNKEAWPHIKTIFQGIAAKVGTGEPCCDWVGDEGAGHFVKMVHNGIEYGDMQLICEAYHLMKDVLGMAQDEMAQAFEDWNKTELDSFLIEITANILKFQDTDGKHLLPKIRDSAGQKGTGKWTAISALEYGVPVTLIGEAVFARCLSSLKDERIQASKKLKGPQKFQFDGDKKSFLEDIRKALYASKIISYAQGFMLLRQAATEFGWTLNYGGIALMWRGGCIIRSVFLGKIKDAFDRNPELQNLLLDDFFKSAVENCQDSWRRAVSTGVQAGIPMPCFTTALSFYDGYRHEMLPASLIQAQRDYFGAHTYELLAKPGQFIHTNWTGHGGTVSSSSYNA [PGD] | 0.123 | 54.4 °C | 54.4 °C | -0.184 | 1.53 | 0.62
7 | MAQEVSEYLSQNPRVAAWVEALRCDGETDKHWRHRRDFLLRNAGDLAPAGGAASASTDEAADAESGTRNRQLQQLISFSMAWANHVFLGCRYPQKVMDKILSMAEGIKVTDAPTYTTRDELVAKVKKRGISSSNEGVEEPSKKRVIEGKNSSAVEQDHAKTSAKTERASAQQENSSTCIGSAIKSESGNSARSSGISSQNSSTSDGDRSVSSQSSSSVSSQVTTAGSGKASEAEAPDKHGSASFVSLLKSSVNSHMTQSTDSRQQSGSPKKSALEGSSASASQSSSEIEVPLLGSSGSSEVELPLLSSKPSSETASSGLTSKTSSEASVSSSVAKNSSSSGTSLLTPKSSSSTNTSLLTSKSTSQVAASLLASKSSSQTSGSLVSKSTSLASVSQLASKSSSQTSTSQLPSKSTSQSSESSVKFSCKLTNEDVKQKQPFFNRLYKTVAWKLVAVGGFSPNVNHGELLNAAIEALKATLDVFFVPLKELADLPQNKSSQESIVCELRCKSVYLGTGCGKSKENAKAVASREALKLFLKKKVVVKICKRKYRGSEIEDLVLLDEESRPVNLPPALKHPQELL [CDKN2AIP] | -0.0572 | 50.2 °C | 50.8 °C | -0.0367 | 1.13 | 1.43
8 | MAQFGGQKNPPWATQFTATAVSQPAALGVQQPSLLGASPTIYTQQTALAAAGLTTQTPANYQLTQTAALQQQAAAAAAALQQQYSQPQQALYSVQQQLQQPQQTLLTQPAVALPTSLSLSTPQPTAQITVSYPTPRSSQQQTQPQKQRVFTGVVTKLHDTFGFVDEDVFFQLSAVKGKTPQVGDRVLVEATYNPNMPFKWNAQRIQTLPNQNQSQTQPLLKTPPAVLQPIAPQTTFGVQTQPQPQSLLQAQISAASITPLLQTQPQPLLQQPQQKAGLLQPPVRIVSQPQPARRLDPPSRFSGRNDRGDQVPNRKDDRSRERERERRRSRERSPQRKRSRERSPRRERERSPRRVRRVVPRYTVQFSKFSLDCPSCDMMELRRRYQNLYIPSDFFDAQFTWVDAFPLSRPFQLGNYCNFYVMHREVESLEKNMAILDPPDADHLYSAKVMLMASPSMEDLYHKSCALAEDPQELRDGFQHPARLVKFLVGMKGKDEAMAIGGHWSPSLDGPDPEKDPSVLIKTAIRCCKALTGIDLSVCTQWYRFAEIRYHRPEETHKGRTVPAHVETVVLFFPDVWHCLPTRSEWETLSRGYKQQLVEKLQGERKEADGEQDEEEKDDGEAKEISTPTHWSKLDPKTMKVNDLRKELESRALSSKGLKSQLIARLTKQLKVEEQKEEQKELEKSEKEEDEDDDRKSEDDKEEEERKRQEEIERQRRERRYILPDEPAIIVHPNWAAKSGKFDCSIMSLSVLLDYRLEDNKEHSFEVSLFAELFNEMLQRDFGVRIYKSLLSLPEKEDKKEKDKKSKKDERKDKKEERDDETDEPKPKRRKSGDDKDKKEDRDERKKEDKRKDDSKDDDETEEDNNQDEYDPMEAEEAEDEEDDRDEEEMTKRDDKRDINRYCKERPSKDKEKEKTQMITINRDLLMAFVYFDQSHCGYLLEKDLEEILYTLGLHLSRAQVKKLLNKVVLRESCFYRKLTDTSKDEENHEESESLQEDMLGNRLLLPTPTVKQESKDVEENVGLIVYNGAMVDVGSLLQKLEKSEKVRAEVEQKLQLLEEKTDEDEKTILNLENSNKSLSGELREVKKDLSQLQENLKISENMNLQFENQMNKTIRNLSTVMDEIHTVLKKDNVKNEDKDQKSKENGASV [CCAR1] | -0.232 | 50.9 °C | 50.8 °C | 0.0916 | 0.304 | 1.74
9 | MAQHFSLAACDVVGFDLDHTLCRYNLPESAPLIYNSFAQFLVKEKGYDKELLNVTPEDWDFCCKGLALDLEDGNFLKLANNGTVLRASHGTKMMTPEVLAEAYGKKEWKHFLSDTGMACRSGKYYFYDNYFDLPGALLCARVVDYLTKLNNGQKTFDFWKDIVAAIQHNYKMSAFKENCGIYFPEIKRDPGRYLHSCPESVKKWLRQLKNAGKILLLITSSHSDYCRLLCEYILGNDFTDLFDIVITNALKPGFFSHLPSQRPFRTLENDEEQEALPSLDKPGWYSQGNAVHLYELLKKMTGKPEPKVVYFGDSMHSDIFPARHYSNWETVLILEELRGDEGTRSQRPEESEPLEKKGKYEGPKAKPLNTSSKKWGSFFIDSVLGLENTEDSLVYTWSCKRISTYSTIAIPSIEAIAELPLDYKFTRFSSSNSKTAGYYPNPPLVLSSDETLISK [NT5DC1] | 0.0982 | 55.5 °C | 55.7 °C | -0.212 | 0.00809 | -0.565
